Assay results taken from PMC10786891, “Massively parallel profiling of RNA-targeting CRISPR-Cas13d”.
Positions count from the first letter of the chain named. Numbers in names are those of the source.

T1: EsCas13d, nuclease-dead (Eubacterium siraeum, UniProt B0MS50, R295A;H300A;R849A;H854A)
T1 sequence: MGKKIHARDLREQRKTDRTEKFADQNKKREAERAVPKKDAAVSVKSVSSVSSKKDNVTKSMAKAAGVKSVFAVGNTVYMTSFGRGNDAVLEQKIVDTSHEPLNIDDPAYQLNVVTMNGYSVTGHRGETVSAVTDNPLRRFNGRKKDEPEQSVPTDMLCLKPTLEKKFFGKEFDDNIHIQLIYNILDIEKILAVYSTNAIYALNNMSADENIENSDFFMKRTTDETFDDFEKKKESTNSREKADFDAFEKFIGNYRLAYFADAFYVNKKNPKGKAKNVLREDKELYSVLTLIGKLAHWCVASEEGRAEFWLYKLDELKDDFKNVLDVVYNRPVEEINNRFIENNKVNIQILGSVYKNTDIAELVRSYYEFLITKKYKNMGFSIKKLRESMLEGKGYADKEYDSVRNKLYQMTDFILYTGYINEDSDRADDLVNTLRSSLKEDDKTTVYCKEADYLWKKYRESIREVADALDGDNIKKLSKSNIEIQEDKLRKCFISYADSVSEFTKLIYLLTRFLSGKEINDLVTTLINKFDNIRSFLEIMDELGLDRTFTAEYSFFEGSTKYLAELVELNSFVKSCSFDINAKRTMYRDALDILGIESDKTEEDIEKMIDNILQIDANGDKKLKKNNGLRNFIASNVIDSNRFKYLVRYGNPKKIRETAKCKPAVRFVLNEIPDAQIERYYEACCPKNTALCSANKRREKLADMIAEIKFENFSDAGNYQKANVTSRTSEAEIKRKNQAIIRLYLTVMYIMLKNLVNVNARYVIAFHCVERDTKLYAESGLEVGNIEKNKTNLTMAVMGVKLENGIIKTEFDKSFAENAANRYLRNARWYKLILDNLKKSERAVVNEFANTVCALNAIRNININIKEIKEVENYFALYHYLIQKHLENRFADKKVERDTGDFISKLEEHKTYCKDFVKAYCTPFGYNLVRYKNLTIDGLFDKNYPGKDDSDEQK

B1: target 1 insC 3' of 18,insG 3' of 2 (mixed)
RNA 1: CACCCGUGCAAAAAUGCAGGGGUCUAAAACUGAGCGGAUAACCUCUCUAUGG
RNA 2: GGGAAUGGAUCCACAUCUACGAAUUCGUACCAUACGAGAGGUUAUCCGCUCGACCGAGAUCGGAAGAGCACACGU
B2: target 1 insC 3' of 13,insA 3' of 7 (mixed)
RNA 1: B1 RNA 1
RNA 2: GGGAAUGGAUCCACAUCUACGAAUUCGUACCAUAGAGAGCGUUAUCACGCUCACCGAGAUCGGAAGAGCACACGU
B3: target 1 insC 3' of 15,insC 3' of 15 (mixed)
RNA 1: B1 RNA 1
RNA 2: B2 RNA 2 with A38C, G39C, C40A, U42G, A44U, U45A, C46U, A47C
B4: target 1 U10C,G17C (mixed)
RNA 1: B1 RNA 1
RNA 2: GGGAAUGGAUCCACAUCUACGAAUUCGUACCAUACAGAGGUCAUCCGCUCACCGAGAUCGGAAGAGCACACGU
B5: target 1 insA 3' of 6,insA 3' of 4 (mixed)
RNA 1: B1 RNA 1
RNA 2: B2 RNA 2 with C40G, G41U, U43A, A44U, U45C, C48G, G49C, C50A
B6: target 1 insU 3' of 22,insA 3' of 13 (mixed)
RNA 1: B1 RNA 1
RNA 2: GGGAAUGGAUCCACAUCUACGAAUUCGUACUCAUAGAGAGAGUUAUCCGCUCACCGAGAUCGGAAGAGCACACGU
B7: target 1 insA 3' of 22,insC 3' of 19 (mixed)
RNA 1: B1 RNA 1
RNA 2: B6 RNA 2 with U31A, A35C, G36A, A37G, G38A, A39G, G40A, A41G
B8: target 1 C2U,C4G (mixed)
RNA 1: B1 RNA 1
RNA 2: B4 RNA 2 with C35G, C42U, C48G, C50U
B9: target 1 insC 3' of 13,insA 3' of 12 (mixed)
RNA 1: B1 RNA 1
RNA 2: B2 RNA 2 with U42A, A44U, U45A, C46U, A47C
B10: target 1 insU 3' of 7 (mixed)
RNA 1: B1 RNA 1
RNA 2: GGGAAUGGAUCCACAUCUACGAAUUCGUACCAUAGAGAGGUUAUCUCGCUCACCGAGAUCGGAAGAGCACACGU
B11: target 1 insG 3' of 18,insU 3' of 15 (mixed)
RNA 1: B1 RNA 1
RNA 2: B6 RNA 2 with U31C, C32A, A33U, U34A, A35G, A39U, G40A, A41G
B12: target 1 insA 3' of 11,insG 3' of 6 (mixed)
RNA 1: B1 RNA 1
RNA 2: B2 RNA 2 with C40G, G41U, U42A, A47C, C48G
B13: target 1 G13A,A16C (mixed)
RNA 1: B1 RNA 1
RNA 2: B4 RNA 2 with C35G, A36C, G39A, C42U
B14: target 1 insC 3' of 22,insG 3' of 6 (mixed)
RNA 1: B1 RNA 1
RNA 2: B6 RNA 2 with U31C, A41G, G42U, U44A, A45U, U46C, C48G
B15: target 1 C6G,A9C (mixed)
RNA 1: B1 RNA 1
RNA 2: B4 RNA 2 with C35G, C42U, A43C, C46G
B16: target 1 insC 3' of 11,insC 3' of 5 (mixed)
RNA 1: B1 RNA 1
RNA 2: B2 RNA 2 with C40G, G41U, U42C, A47C, C48G, G49C
B17: target 1 insU 3' of 15,insA 3' of 15 (mixed)
RNA 1: B1 RNA 1
RNA 2: B2 RNA 2 with A38U, G39A, C40A, U42G, A44U, U45A, C46U, A47C
B18: target 1 U8A,U10C (mixed)
RNA 1: B1 RNA 1
RNA 2: B4 RNA 2 with C35G, U44A
B19: target 1 insU 3' of 21,insU 3' of 20 (mixed)
RNA 1: B1 RNA 1
RNA 2: B6 RNA 2 with U31C, C32U, A35U, G36A, A37G, G38A, A39G, G40A, A41G
B20: target 1 A1G,G5A (mixed)
RNA 1: B1 RNA 1
RNA 2: B4 RNA 2 with C35G, C42U, G47A, A51G
B21: target 1 insC 3' of 15,insG 3' of 1 (mixed)
RNA 1: B1 RNA 1
RNA 2: B1 RNA 2 with C35G, G36A, A37G, G38C, G52A, A53G
B22: target 1 G5A,C7G (mixed)
RNA 1: B1 RNA 1
RNA 2: B4 RNA 2 with C35G, C42U, C45G, G47A
B23: target 1 insG 3' of 4,insU 3' of 2 (mixed)
RNA 1: B1 RNA 1
RNA 2: B2 RNA 2 with C40G, G41U, U43A, A44U, U45C, A47G, C50U, U51C, C52U
B24: target 1 insC 3' of 20,insA 3' of 11 (mixed)
RNA 1: B1 RNA 1
RNA 2: B6 RNA 2 with U31C, C32A, A33C, A41G, G42U, U43A
B25: target 1 C6G,A16C (mixed)
RNA 1: B1 RNA 1
RNA 2: B4 RNA 2 with C35G, A36C, C42U, C46G
B26: target 1 insG 3' of 19,insG 3' of 1 (mixed)
RNA 1: B1 RNA 1
RNA 2: B1 RNA 2 with A34G, C35A, G52A, A53G
B27: target 1 U11G,A18U (mixed)
RNA 1: B1 RNA 1
RNA 2: B4 RNA 2 with A34U, C35G, U41G, C42U
B28: target 1 insA 3' of 6,insC 3' of 3 (mixed)
RNA 1: B1 RNA 1
RNA 2: B2 RNA 2 with C40G, G41U, U43A, A44U, U45C, C48G, G49C, C50U, U51C
B29: target 1 U11G,U19C (mixed)
RNA 1: B1 RNA 1
RNA 2: B4 RNA 2 with U33C, C35G, U41G, C42U

What follows are binders tested against T1, EsCas13d, nuclease-dead (assay: crRNA (strand 1, pre-loaded); Mg2+; 40 mM Tris-HCl pH 7.5, 150 mM NaCl, 6 mM MgCl2, 1 mM DTT, 0.1% Tween-20, 0.2 mg/ml BSA; 25 C; 10 min per concentration, then washed). Settings: tags: His6-TwinStrep-SUMO cleaved; N-terminal SNAP kept (SNAP-Surface 488); label: 3' end held by stalled T7 RNA polymerase.
In the case of B1, the Kd is reported as 38.9 ± 2.9 nM. Work on B2 yielded a Kd of 14.2 ± 0.9 nM. B3 was tested, and the Kd was 26.6 ± 1.5 nM. In the case of B4, the Kd is reported as 63 ± 19 nM. In the case of B5, the Kd is reported as 28.5 ± 2.8 nM. B6 showed a Kd of 17.1 ± 1.9 nM. B7 gave a Kd of 51 ± 7 nM. B8 was tested, and the Kd was 5.1 ± 0.5 nM. For B9, the Kd was 15.7 ± 1 nM. For B10, the Kd was 14.8 ± 1.2 nM. B11 was tested, and the Kd was 70 ± 17 nM. With B12 the Kd was 15.7 ± 1.1 nM. Binder B13 has a Kd of 28.8 ± 1.6 nM. For B14, the Kd was 25.2 ± 3.3 nM. B15 was tested, and the Kd was 11.7 ± 0.6 nM. For B16, the Kd was 18.2 ± 1.4 nM. B17 showed a Kd of 19 ± 1.7 nM. In the case of B18, the Kd is reported as 19.2 ± 1.2 nM. B19 showed a Kd of 27.8 ± 3.3 nM. In the case of B20, the Kd is reported as 35 ± 4 nM. Work on B21 yielded a Kd of 16.7 ± 1.3 nM. For B22, the Kd was 11.8 ± 0.8 nM. B23 showed a Kd of 8.5 ± 0.4 nM. B24 gave a Kd of 11.9 ± 0.7 nM. For B25, the Kd was 42.2 ± 1.8 nM. B26 was tested, and the Kd was 87 ± 26 nM. B27 was tested, and the Kd was 100 ± 25 nM. In the case of B28, the Kd is reported as 20 ± 1.3 nM. Work on B29 yielded a Kd of 86 ± 18 nM.
